This experiment has as its target T1, BSA (UniProt P02769 25-607).
T1 construct: also called 음성 대조군; 대조군
Nature of the experiment: ELISA of clone supernatant on coated antigen. On the technique in general: ELISA stands for enzyme-linked immunosorbent assay.

These results are taken from KR20170108690A (dated 2017).

T1 sequence (P02769 25-607 limits assumed): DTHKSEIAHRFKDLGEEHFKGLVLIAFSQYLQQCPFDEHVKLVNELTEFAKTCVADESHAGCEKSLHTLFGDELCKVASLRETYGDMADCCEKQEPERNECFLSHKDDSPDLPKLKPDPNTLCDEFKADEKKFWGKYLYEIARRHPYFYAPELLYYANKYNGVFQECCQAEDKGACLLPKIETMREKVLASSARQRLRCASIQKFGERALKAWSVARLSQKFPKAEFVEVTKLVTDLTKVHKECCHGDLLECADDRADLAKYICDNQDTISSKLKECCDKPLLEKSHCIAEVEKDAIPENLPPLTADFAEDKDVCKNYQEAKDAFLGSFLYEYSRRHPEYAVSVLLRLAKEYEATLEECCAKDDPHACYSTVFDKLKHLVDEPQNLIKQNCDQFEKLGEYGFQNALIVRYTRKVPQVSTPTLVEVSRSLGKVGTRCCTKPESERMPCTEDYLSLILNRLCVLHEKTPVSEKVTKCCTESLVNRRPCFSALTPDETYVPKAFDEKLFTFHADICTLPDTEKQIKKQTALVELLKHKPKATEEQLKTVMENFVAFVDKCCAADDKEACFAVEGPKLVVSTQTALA

B1: NA-A4 항체 클론 (Fab 형태, 파지 디스플레이 클론의 IPTG 유도 상층액) (Fab, V domains shown)
VH: EVQLVESGGGLVQPGGSLRLSCAASGFTFNSYWMSWVRQAPGKGLEWVSWITPTSGTTYYADSVKGRFTISRDNSKNTLYLQMNSLRAEDTAVYYCARVEDWDIGYYGMDYWGQGTLVTVSS
VL: DIQMTQSPSSLSASVGDRVTITCRASQSVSNWLAWYQQKPGKAPKLLIYWASSLESGVPSRFSGSGSGTDFTLTISSLQPEDFATYYCQQYYNHPYTFGQGTKVEIK
notes: also called Influenza NA-A4 antibody; 인플루엔자 NA-A4 항체
As to B1, the binding result is reported as “no binding”.
